From publication PMC4718629, “Molecular Determinants of GS-9620-Dependent TLR7 Activation” (PLoS ONE, 2016)

Target: the molecule itself
Test: SEC; purified recombinant full-length TLR7 run against calibration standards (670, 158, 44, 17 and 1.35 kDa); solubilized with Fos-Choline 14

B1: full-length recombinant human TLR7 (residues 27-1049) with N-terminal 6HIS tag (receptor, UniProt Q9NYK1 27-1049, looked up)
chain: ARWFPKTLPCDVTLDVPKNHVIVDCTDKHLTEIPGGIPTNTTNLTLTINHIPDISPASFHRLDHLVEIDFRCNCVPIPLGSKNNMCIKRLQIKPRSFSGLTYLKSLYLDGNQLLEIPQGLPPSLQLLSLEANNIFSIRKENLTELANIEILYLGQNCYYRNPCYVSYSIEKDAFLNLTKLKVLSLKDNNVTAVPTVLPSTLTELYLYNNMIAKIQEDDFNNLNQLQILDLSGNCPRCYNAPFPCAPCKNNSPLQIPVNAFDALTELKVLRLHSNSLQHVPPRWFKNINKLQELDLSQNFLAKEIGDAKFLHFLPSLIQLDLSFNFELQVYRASMNLSQAFSSLKSLKILRIRGYVFKELKSFNLSPLHNLQNLEVLDLGTNFIKIANLSMFKQFKRLKVIDLSVNKISPSGDSSEVGFCSNARTSVESYEPQVLEQLHYFRYDKYARSCRFKNKEASFMSVNESCYKYGQTLDLSKNSIFFVKSSDFQHLSFLKCLNLSGNLISQTLNGSEFQPLAELRYLDFSNNRLDLLHSTAFEELHKLEVLDISSNSHYFQSEGITHMLNFTKNLKVLQKLMMNDNDISSSTSRTMESESLRTLEFRGNHLDVLWREGDNRYLQLFKNLLKLEELDISKNSLSFLPSGVFDGMPPNLKNLSLAKNGLKSFSWKKLQCLKNLETLDLSHNQLTTVPERLSNCSRSLKNLILKNNQIRSLTKYFLQDAFQLRYLDLSSNKIQMIQKTSFPENVLNNLKMLLLHHNRFLCTCDAVWFVWWVNHTEVTIPYLATDVTCVGPGAHKGQSVISLDLYTCELDLTNLILFSLSISVSLFLMVMMTASHLYFWDVWYIYHFCKAKIKGYQRLISPDCCYDAFIVYDTKDPAVTEWVLAELVAKLEDPREKHFNLCLEERDWLPGQPVLENLSQSIQLSKKTVFVMTDKYAKTENFKIAFYLSHQRLMDEKVDVIILIFLEKPFQKSKFLQLRKRLCGSSVLEWPTNPQAHPYFWQCLKNALATDNHVAYSQVFKETV
notes: human Toll-like receptor 7 (TLR7), residues 27-1049; also called recTLR7; recombinant TLR7
stoichiometry N: 2
